Results on one substance are retold here after US20180216133A1.

Test [1] deals with AAVrh10 capsid (vector AAV2/AAVrh10.CMV.PI.Cre.RBG) (adeno-associated virus rh10). Description: AVB Sepharose HiTrap column, purified vector mixes; genome copies per fraction by real-time PCR (average of two runs). In general terms: In qPCR the cycle at which signal appears reflects the starting amount.
Test [2] addresses rh.64R1-SPAKFA capsid mutant (NQAKLN→SPAKFA) (adeno-associated virus rh.64R1 (engineered)). Description: AVB Sepharose HiTrap column, clarified culture supernatant, wild type vs SPAKFA mutant head-to-head; real-time PCR.
Test [3] deals with AAVrh64R1 capsid (vector) (adeno-associated virus rh.64R1). The description is as above.
Test [4] deals with AAV9 capsid (vector, CB7.CI.ffluciferase.RBG) (adeno-associated virus 9). Described as above.
The target of test [5] is AAV8-SPAKFA capsid mutant (NQSKLN→SPAKFA) (adeno-associated virus 8 (engineered)). The description is as above.
The target in test [6] is AAV8 capsid (vector) (adeno-associated virus 8). The test is described as above.
Test [7] addresses AAV9-SPAKFA capsid mutant (NKDKLN→SPAKFA) (adeno-associated virus 9 (engineered)). The description is as above.
The target in test [8] is AAV3B-NKDKLN capsid mutant (SPAKFA→NKDKLN) (adeno-associated virus 3B (engineered)). Description: AVB Sepharose HiTrap column, AVB.C (1 M NaCl) wash fraction; real-time PCR.
The target of test [9] is AAV3B capsid (vector AAV2/3B.CB7.CI.ffluciferase.RBG) (adeno-associated virus 3B). The test is described as above.
Test [10] deals with AAV3B-NKDKLN capsid mutant (SPAKFA→NKDKLN) (adeno-associated virus 3B (engineered)). Description: AVB Sepharose HiTrap column, DPBS wash fraction; real-time PCR.
In test [11] the target is AAV3B capsid (vector AAV2/3B.CB7.CI.ffluciferase.RBG) (adeno-associated virus 3B). The test is described as above.
In test [12] the target is AAVhu37 capsid (vector AAV2/AAVhu37.TBG.EGFP.bGH) (adeno-associated virus hu37). Description: AVB Sepharose HiTrap column, purified vector mix AAV8+AAVhu37+AAVrh10; genome copies per fraction by real-time PCR.
In test [13] the target is AAV8 capsid (vector) (adeno-associated virus 8). The description is as above.
For test [14], the target named is AAV3B-NKDKLN capsid mutant (SPAKFA→NKDKLN) (adeno-associated virus 3B (engineered)). Description: AVB Sepharose HiTrap column, clarified culture supernatant, AAV3B vs AAV3B-NKDKLN head-to-head; real-time PCR.
Test [15] concerns the target AAV3B capsid (vector AAV2/3B.CB7.CI.ffluciferase.RBG) (adeno-associated virus 3B). The description is as above.
The target in test [16] is AAV3B-NKDKLN capsid mutant (SPAKFA→NKDKLN) (adeno-associated virus 3B (engineered)). Description: AVB Sepharose HiTrap column, unbound vector in flow-through; real-time PCR.
Test [17] addresses AAV3B capsid (vector AAV2/3B.CB7.CI.ffluciferase.RBG) (adeno-associated virus 3B). Described as above.
For test [18] the target is unchanged. Description: AVB Sepharose HiTrap column, clarified AAV3B product; genome copies per fraction by real-time PCR.
The target of test [19] is AAVrh64R1 capsid (vector) (adeno-associated virus rh.64R1). Description: AVB Sepharose HiTrap column, purified vector mix AAVrh64R1+AAVrh10; genome copies per fraction by real-time PCR.

With “AVB Sepharose High Performance affinity resin ligand: 14kD fragment from a single chain llama antibody expressed in yeast (VHH)”, the percent of loaded vector genome in the elution fraction worked out at 84% in test [1], 82% in test [12], 20% in test [13] and 22% in test [19]. Also, the percent recovery of loaded vector in the elution fraction (of total fractions) turned out to be 91% in test [2]; 18% in test [3]; 0.6% in test [4]; 93% in test [5]; 30% in [6]; 51% in test [7]. For the same substance, the percent of vector genomes in wash 2 (W2) fraction in test [8] worked out at 4.6%; in test [9] it was 0.3%. Also, the values for the percent of vector genomes in wash 1 (W1) fraction in test [10] and in test [11] were 0.1% and 0%, respectively. Further, the elution fraction yield in test [14] came out at 87%; in [15], 98%. Further, the percent of vector genomes in flow-through (FT) fraction worked out at 8.2% in [16] and 1.3% in [17]. The same substance had a percent of vector genomes recovered in the elution fraction in test [18] of 98%.
